Laboratory results reported in patent US12338277.

What was measured:
Assay in all cases: cell-based or functional assay
[1] = target: HIV-1 Env of pseudovirus 0815.v3.c3 (HIV-1)
[2] = target: HIV-1 envelope of pseudovirus MS208.A1 (HIV-1)
[3] = target: HIV-1 envelope of pseudovirus HIV-0013095-2.11 (HIV-1)
[4] = target: HIV-1 Env of pseudovirus X1254_c3 (HIV-1)
[5] = target: HIV-1 envelope of pseudovirus CNE5 (HIV-1)
[6] = target: HIV-1 Env of pseudovirus T255-34 (HIV-1)
[7] = target: HIV-1 envelope of pseudovirus BJOX009000.02.4 (HIV-1)
[8] = target: Murine leukemia virus (MuLV) envelope on pseudovirus (Murine leukemia virus)
[9] = target: HIV-1 envelope of pseudovirus 6545.v4.c1 (HIV-1)
[10] = target: HIV-1 envelope of pseudovirus A07412M1.vrc12 (HIV-1)
[11] = target: HIV-1 envelope of pseudovirus 6041.v3.c23 (HIV-1)
[12] = target: HIV-1 envelope of pseudovirus T257-31 (HIV-1)
[13] = target: HIV-1 Env of pseudovirus ZM233M.PB6 (HIV-1)
[14] = target: HIV-1 Env of pseudovirus Ce0393_C3 (HIV-1)
[15] = target: HIV-1 envelope of pseudovirus 3103.v3.c10 (HIV-1)
[16] = target: HIV-1 envelope of pseudovirus CNE17 (HIV-1)
[17] = target: HIV-1 envelope of pseudovirus ZM249M.PL1 (HIV-1)
[18] = target: HIV-1 envelope of pseudovirus 6811.v7.c18 (HIV-1)
[19] = target: HIV-1 envelope of pseudovirus SC422661.8 (HIV-1)
[20] = target: HIV-1 envelope of pseudovirus QH0692.42 (HIV-1)
[21] = target: HIV-1 envelope of pseudovirus ZM109F.PB4 (HIV-1)
[22] = target: HIV-1 envelope of pseudovirus 0260.v5.c36 (HIV-1)
[23] = target: HIV-1 envelope of pseudovirus HIV-16055-2.3 (HIV-1)
[24] = target: HIV-1 envelope of pseudovirus Du172.17 (HIV-1)
[25] = target: HIV-1 Env of pseudovirus TRJO4551.58 (HIV-1)
[26] = target: HIV-1 Env of pseudovirus 211-9 (HIV-1)
[27] = target: HIV-1 Env of pseudovirus MS208.A1 (HIV-1)
[28] = target: HIV-1 envelope spike of pseudovirus SS1196.1 (HIV-1)
[29] = target: HIV-1 Env of pseudovirus A07412M1.vrc12 (HIV-1)
[30] = target: HIV-1 Env of pseudovirus 9004SS_A3_4 (HIV-1)
[31] = target: HIV-1 envelope of pseudovirus 89-F1_2_25 (HIV-1)
[32] = target: HIV-1 envelope of pseudovirus X1254_c3 (HIV-1)
[33] = target: HIV-1 envelope of pseudovirus Q259.d2.17 (HIV-1)
[34] = target: HIV-1 envelope of pseudovirus AC10.0.29 (HIV-1)
[35] = target: HIV-1 envelope of pseudovirus PVO.4 (HIV-1)
[36] = target: HIV-1 Env of pseudovirus Q23.17 (HIV-1)
[37] = target: HIV-1 Env of pseudovirus BJOX028000.10.3 (HIV-1)
[38] = target: HIV-1 envelope of pseudovirus ZM197M.PB7 (HIV-1)
[39] = target: HIV-1 envelope spike of pseudovirus CAAN5342.A2 (HIV-1)
[40] = target: HIV-1 Env of pseudovirus HIV-001428-2.42 (HIV-1)
[41] = target: HIV-1 envelope of pseudovirus BJOX010000.06.2 (HIV-1)
[42] = target: HIV-1 Env of pseudovirus 928-28 (HIV-1)
[43] = target: HIV-1 envelope of pseudovirus THRO4156.18 (HIV-1)
[44] = target: HIV-1 envelope of pseudovirus 3365.v2.c2 (HIV-1)
[45] = target: HIV-1 envelope of pseudovirus BJOX025000.01.1 (HIV-1)
[46] = target: HIV-1 Env of pseudovirus Ce703010054_2A2 (HIV-1)
[47] = target: HIV-1 envelope of pseudovirus WEAU_d15_410_787 (HIV-1)
[48] = target: HIV-1 envelope of pseudovirus Ce2010_F5 (HIV-1)
[49] = target: HIV-1 envelope of pseudovirus 6540.v4.c1 (HIV-1)
[50] = target: HIV-1 envelope of pseudovirus R2184.c04 (HIV-1)

## PGT121 (antibody)
[1]
  IC80 (TZM-bl neutralization): 0.105 µg/mL
[2]
  IC50 (TZM-bl neutralization): > 50 µg/mL
[3]
  IC50 (TZM-bl neutralization): > 50 µg/mL
[4]
  IC80 (TZM-bl neutralization): 0.199 µg/mL
[5]
  IC50 (TZM-bl neutralization): > 50 µg/mL
[6]
  IC80 (TZM-bl neutralization): > 50 µg/mL
[7]
  IC50 (TZM-bl neutralization): 3.63 µg/mL
[8]
  IC50 (TZM-bl neutralization assay): > 40 µg/mL
  IC80 (TZM-bl neutralization assay): > 40 µg/mL
[9]
  IC50 (TZM-bl neutralization): > 50 µg/mL
[10]
  IC50 (TZM-bl neutralization): 0.001 µg/mL
[11]
  IC50 (TZM-bl neutralization): > 50 µg/mL
[12]
  IC50 (TZM-bl neutralization): > 50 µg/mL
[13]
  IC80 (TZM-bl neutralization): 8.98 µg/mL
[14]
  IC80 (TZM-bl neutralization): > 50 µg/mL
[15]
  IC50 (TZM-bl neutralization): 0.042 µg/mL
[16]
  IC50 (TZM-bl neutralization): 45.3 µg/mL
[17]
  IC50 (TZM-bl neutralization): > 50 µg/mL
[18]
  IC50 (TZM-bl neutralization): 0.004 µg/mL
[19]
  IC50 (TZM-bl neutralization): 0.101 µg/mL
[20]
  IC50 (TZM-bl neutralization): 1.04 µg/mL
[21]
  IC50 (TZM-bl neutralization): 7.89 µg/mL
[22]
  IC50 (TZM-bl neutralization): 0.054 µg/mL
[23]
  IC50 (TZM-bl neutralization): 0.444 µg/mL
[24]
  IC50 (TZM-bl neutralization): 0.115 µg/mL
[25]
  IC80 (TZM-bl neutralization): 35.3 µg/mL
[26]
  IC80 (TZM-bl neutralization): 8.84 µg/mL
[27]
  IC80 (TZM-bl neutralization): > 50 µg/mL
[28]
  IC50 (TZM-bl neutralization assay): 0.008 µg/mL
  IC80 (TZM-bl neutralization assay): 0.03 µg/mL
[29]
  IC80 (TZM-bl neutralization): 0.406 µg/mL
[30]
  IC80 (TZM-bl neutralization): 0.026 µg/mL
[31]
  IC50 (TZM-bl neutralization): > 50 µg/mL
[32]
  IC50 (TZM-bl neutralization): 0.056 µg/mL
[33]
  IC50 (TZM-bl neutralization): 8.99 µg/mL
[34]
  IC50 (TZM-bl neutralization): 0.037 µg/mL
[35]
  IC50 (TZM-bl neutralization): 0.131 µg/mL
[36]
  IC80 (TZM-bl neutralization): 0.031 µg/mL
[37]
  IC80 (TZM-bl neutralization): > 50 µg/mL
[38]
  IC50 (TZM-bl neutralization): > 50 µg/mL
[39]
  IC50 (TZM-bl neutralization assay): 0.013 µg/mL
  IC80 (TZM-bl neutralization assay): 0.056 µg/mL
[40]
  IC80 (TZM-bl neutralization): 0.156 µg/mL
[41]
  IC50 (TZM-bl neutralization): > 50 µg/mL
[42]
  IC80 (TZM-bl neutralization): > 50 µg/mL
[43]
  IC50 (TZM-bl neutralization): > 50 µg/mL
[44]
  IC50 (TZM-bl neutralization): 0.921 µg/mL
[45]
  IC50 (TZM-bl neutralization): > 50 µg/mL
[46]
  IC80 (TZM-bl neutralization): > 50 µg/mL
[47]
  IC50 (TZM-bl neutralization): 0.083 µg/mL
[48]
  IC50 (TZM-bl neutralization): > 50 µg/mL
[49]
  IC50 (TZM-bl neutralization): > 50 µg/mL
[50]
  IC50 (TZM-bl neutralization): > 50 µg/mL
